Assay results reported in CN111690063A (UNIV BEIJING, dated 2020).

Experiments:
[1] = molecular target: T1, 粒细胞-巨噬细胞集落刺激因子 (human granulocyte-macrophage colony-stimulating factor, GM-CSF) (human, UniProt P04141 18-144); assay: Not stated at this place (summary of advantages); conflicts with the value in Example 4
T1 construct: also called GM-CSF蛋白

[2] = molecular target: T1, 粒细胞-巨噬细胞集落刺激因子 (human …); assay: Biolayer interferometry type assay: GM-CSF loaded on SA sensor, nanobody at 1000, 500 and 250 nmol, 30℃

T1 sequence (P04141 18-144 limits assumed): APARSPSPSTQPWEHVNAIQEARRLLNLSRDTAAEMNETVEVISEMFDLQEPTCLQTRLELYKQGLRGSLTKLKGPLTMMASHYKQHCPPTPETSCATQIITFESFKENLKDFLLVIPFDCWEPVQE

B1: 抗GM-CSF纳米抗体G1 (VHH)
VHH: QLQLVESGGGLVQAGGSLRLSCAVSGRPSNVYDMGWFRRVPGKESRLMAYINWSRGSTYYADSVKGRFTISRDNTNNTVYLQMNSLKPEDTAVYYCAARAGPGTPAYNSWGQGTQVTVSS
notes: Alpaca VHH picked from an immune phage library
- Kd [1]: 29.5 nM
- Kd [2]: 93.7 nM
